# Assay results published in US11529397B2, “Method of treating mucopolysaccharidosis type IVA” (Saint Louis University, priority 2018, dated 2022).
# B1: N-acetylgalactosamine-6-sulfatase (protein, listed as Homo sapiens)
# chain: APQPPNILLLLMDDMGWGDLGVYGEPSRETPNLDRMAAEGLLFPNFYSANPLCSPSRAALLTGRLPIRNGFYTTNAHARNAYTPQEIVGGIPDSEQLLPELLKKAGYVSKIVGKWHLGHRPQFHPLKHGFDEWFGSPNCHFGPYDNKARPNIPVYRDWEMVGRYYEEFPINLKTGEANLTQIYLQEALDFIKRQARHHPFFLYWAVDATHAPVYASKPFLGTSQRGRYGDAVREIDDSIGKILELLQDLHVADNTFVFFTSDNGAALISAPEQGGSNGPFLCGKQTTFEGGMREPALAWWPGHVTAGQVSHQLGSIMDLFTTSLALAGLTPPSDRAIDGLNLLPTLLQGRLMDRPIFYYRGDTLMAATLGQHKAHFWTWTNSWENFRQGIDFCPGQNVSGVTTHNLEDHTKLPLIFHLGRDPGERFPLSFASAEYQEALSRITSVVQQHQEALVPAQPQLNVCNWAVMNWAPPGCEKLGKCLTPPESIPKKCLWSH
# notes: recombinant human GALNS produced in CHO cells, used for ERT and oral tolerance
# Experiments:
# splenocytes [1] = experiment: Cytokine production by splenocytes after in vitro stimulation (Example 3); type: cell-based, mouse; settings: splenocytes of MKC mice treated by ERT with GALNS; culture supernatant
# Description: Mice (MKC) genetically engineered not to express GALNS were used in these examples. […] 200 μl of the emulsion were administered as a subcutaneous injection. […] Control mice (n=2) were immunized with PBS emulsified in CFA and IFA respectively (Chung et al. (2005) J. Leukoc Biol. 77(6):906-13)). […] A control group (n=5) received PBS (Tomatsu et al. (2008) Hum Mol Genet. 15; 17(6):815-24). […]
# The production of cytokines after peptide stimulation was evaluated as intracellular staining (by flow cytometry) and secreted cytokines (by LUMINEX). […] The cells were treated with 1 μl of a protein transport inhibitor BD GolgiPlug™ during 5 h at 37° C., saturated humidity and 5% CO2. The suspension of cells was centrifuged at 1000 rpm during 10 minutes. The supernatants were collected by further analysis with LUMINEX. The Fc receptors were blocked with 1 μl of α-mouse CD16/32 (e-Bioscience) during 15 min at 4° C. After washing, the cells were stained with PE-Cy7-labeled anti-mouse CD4 and Alexa700-labeled anti-mouse CD8 antibodies during 30 min at 4° C. After two washes, cells were permeabilized with a BD fixation/permeabilization solution during 20 min at 4° C. Cells were washed two times and stained with a cocktail of antibodies for intracellular staining (PE-labeled anti-mouse IL-4, APC-labeled anti-mouse IL-5 and FITC-labeled anti-mouse IFN-γ). After two washes, cells were analyzed by flow cytometry. Secreted cytokines (IL-4, IL-5, IL-13, IL-17 and IFN-γ) in the collected supernatants were detected by using a bead immunoassay kit which allows the measurement of multiple proteins simultaneously (LUMINEX technology, using a Millipore Milliplex™ kit).
# splenocytes [2] = experiment: Secreted cytokine profile of splenocytes, retest in MKC mice (Example 7); type: cell-based, mouse; settings: for IL-5 secretion, ERT treated vs PBS controls, p or significance / IL-13 secretion, ERT treated vs PBS controls, p or significance / profile of secreted cytokines, ERT treated vs PBS treated mice: MKC mice; for levels of IL-4 secretion among the stimuli / levels of IL-5 secretion among the stimuli: MKC mice treated by ERT; for profile of secreted cytokines, ERT treated vs PBS treated mice: 16 i.v. infusions
# Description: The predicted peptides from Example 1 were reevaluated in MKC mice to reaffirm the selection of peptides 4, 8, and 10. […] A control group received PBS. […] The suspension was centrifuged at 1,000 rpm during 10 minutes. […] The specificity of cellular response against the peptides or the complete enzyme in the in vitro stimulation was determined by splenocyte proliferation or cytokine secretion in ERT treated mice or PBS injected control mice.
# Cytokines were determined in the cell culture supernatants. […] Cells were centrifuged at 1,000 rpm during 10 min. Secreted cytokines (IL-4, IL-5, IL-13, and IFN-γ) in the collected supernatants were detected by a bead immunoassay kit which allow the measurement of multiple proteins simultaneously (LUMINEX xMAP Technology, using a Millipore Milliplex™ kit) according to manufacturer's instructions (FIG. 5).
# splenocytes [3] = experiment: Splenocytes proliferation in Morquio A mouse models and WT mice treated by ERT (Example 9); type: cell-based
# Description: (§1) Morquio A mouse models: a). […] 14(22): p. 3321-35).c). Missense mutation mice (Galnstm (C76S) SLU C2) (Tomatsu et al. (2007) Mol Genet Metab., 91(3): p. 251-8), and wild-type C57BL6 mice were treated by ERT. […] A control group received PBS.
# The suspension was centrifuged at 1,000 rpm during 10 minutes.
# Thymidine incorporation was measured by β-Scintillation counter (Trilux Microbeta Counter) Mirano-Bascos, et al. (2010) J Virol. 84(7): p. 3303-11).
# [4] = system: Morquio A mice and WT mice; experiment: Plasma IgG anti-GALNS by indirect ELISA in mice treated by ERT (Example 8); type: in vivo, mouse; settings: 16 i.v. infusions of GALNS
# Description: as §1
# An indirect ELISA technique was used to detect plasma IgG antibodies against GALNS in treated and untreated mice. […] The plates were blocked with 3% casein in PBS during 1 h at room temperature in a wet chamber. After two washes, first with TTBS (10 mM Tris, 150 mM NaCl, 0.05% Tween 20, pH 7.5), and then with TBS (10 mM Tris, 150 mM NaCl, 0.05%, pH 7.5), […] of mice plasma samples diluted (1:1,000) in TTBS were added to the plate and incubated 2 h at 37° C. in a wet chamber. Four washes with TTBS were performed. 100 μl of anti-mouse IgG-Peroxidase (Sigma) 1:5,000 dilution in TTBS were applied. After three washes with TTBS, followed by one wash with TBS, the experiment was developed with the substrate TMB (3,3′,5,5′-Tetramethylbenzidine, Sigma). The enzymatic reaction was stopped with IN HCl solution and the absorbance was measured at 450 nm in a microplate reader Multiskan® EL800 (Bio-Tek Instruments). Plasma concentrations of IgG antibodies anti-GALNS were derived by extrapolation of the absorbance values from a calibration curve using a mAb anti-GALNS.
Molecule,secretion of cytokines IL-5 and IFN-γ (splenocytes [1]),"IL-5 secretion, ERT treated vs PBS controls, p or significance (splenocytes [2])","IL-13 secretion, ERT treated vs PBS controls, p or significance (splenocytes [2])",levels of IL-4 secretion among the stimuli (splenocytes [2]),levels of IL-5 secretion among the stimuli (splenocytes [2]),"profile of secreted cytokines, ERT treated vs PBS treated mice (splenocytes [2])","splenocytes proliferation, ERT treated vs PBS controls (splenocytes [3]; C2 mice)","splenocytes proliferation, ERT treated vs PBS controls (splenocytes [3]; MKC mice)","splenocytes proliferation, ERT treated vs PBS controls (splenocytes [3]; WT mice)","humoral response, IgG anti-GALNS in plasma ([4]; C2 mice)","humoral response, IgG anti-GALNS in plasma ([4]; MKC mice)","humoral response, IgG anti-GALNS in plasma ([4]; MTol mice)","humoral response, IgG anti-GALNS in plasma ([4]; WT mice)"
QQHQEALVPAQPQLNVTNWA (listed as Homo sapiens) [Peptide I10],strong response,0.0094,0.0002,Higher levels,Higher levels,statistically significant difference,statistically significant difference,statistically significant,statistically significant difference,,,,
B1,,0.0029,0.0152,Higher levels,Higher levels,statistically significant difference,statistically significant difference,statistically significant,statistically significant difference,heterogeneous humoral response,stronger and more homogeneous response,lowest levels of response,heterogeneous humoral response
